Values belong to the binder of their own block, whether it stands above or below them.
Assays:
[1] = molecular target: T1, BMP2 with his-tag (Homo sapiens (Human), UniProt P12643 283-396, Natural BMP2 is a disulfide-linked homodimer; one protomer is given. The his-tag is left out.); assay: ELISA: anti-human Fc coated, XM5-hFc supernatant (1:32) captured, his-tagged BMP2 titrated, anti-his-HRP
T1 construct: soluble his-tagged BMP used on captured XM5-Fc or Gremlin-Fc; also called BMPs (BMP2/4/7) with his-tag

[2] = molecular target: T2, BMP7 with his-tag (Homo sapiens (Human), UniProt P18075 293-431, Natural BMP7 is a disulfide-linked homodimer; one protomer is given. The his-tag is left out.); assay: ELISA: anti-human Fc coated, XM5-hFc supernatant (1:32) captured, his-tagged BMP7 titrated, anti-his-HRP
T2 construct: also called BMPs (BMP2/4/7) with his-tag
T2 sequence: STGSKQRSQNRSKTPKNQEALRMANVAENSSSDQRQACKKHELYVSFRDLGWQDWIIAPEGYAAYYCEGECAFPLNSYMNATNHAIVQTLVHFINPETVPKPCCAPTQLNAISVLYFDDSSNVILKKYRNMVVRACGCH

[3] = molecular target: T3, BMP4 with his-tag (Homo sapiens (Human), UniProt P12644 293-408, Natural BMP4 is a disulfide-linked homodimer; one protomer is given. The his-tag is left out.); assay: ELISA: anti-human Fc coated, XM5-hFc supernatant (1:32) captured, his-tagged BMP4 titrated, anti-his-HRP
T3 construct: also called BMPs (BMP2/4/7) with his-tag
T3 sequence: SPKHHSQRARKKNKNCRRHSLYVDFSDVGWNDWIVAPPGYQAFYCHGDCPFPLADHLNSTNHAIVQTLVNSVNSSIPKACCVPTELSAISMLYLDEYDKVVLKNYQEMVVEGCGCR

[4] = molecular target: T4, HGREM1-His (ACRO) (human, UniProt O60565 25-184); assay: BLI Fortebio, human gremlin-his on NTA biosensor, antibody 100, 50, 25 nM
T4 construct: Lys25-Asp184 of NP_037504 with C-terminal polyhistidine tag (ACRO GR1-H52H3); they are put here; also called hGREM1 (ACRO); human gremlin (ACRO)
T4 sequence: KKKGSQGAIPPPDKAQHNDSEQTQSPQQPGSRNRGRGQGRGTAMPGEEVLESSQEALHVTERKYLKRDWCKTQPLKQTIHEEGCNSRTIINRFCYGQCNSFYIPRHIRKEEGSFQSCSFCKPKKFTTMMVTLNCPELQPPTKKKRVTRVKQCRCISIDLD
Protocol: The affinity of the humanized antibodies were also measured by Fortebio. Human gremlin protein was diluted with kinetics buffer to get a concentration of 2 μg/ml. 0 nM was used as a reference control. Antibodies to be tested were diluted with ForteBio kinetics buffer (PBS pH 7.4, 0.1% BSA+0.002% Tween-20) to a concentration of 100 nM, 50 nM, and 25 nM. Human gremlin-his was immobilized onto NTA biosensor. The baseline was detected for 60 seconds, and then anti-gremlin antibody association was detected for 120 seconds to get the Kₒₙ factor data. Followed by dissociation in kinetic buffer for 90 seconds to get the Koff factor data.

[5] = molecular target: T4, HGREM1-His (ACRO); assay: ELISA: antibody coated, Gremlin-his titrated, anti-his-HRP; the concentration is that of Gremlin-his
Protocol: (§1) Using a similar ELISA protocol mentioned above, binding of chimeric antibody 14E3 to XM5 or Gremlin were tested. […] The secondary antibody anti-his-HRP was used for detection.

[6] = molecular target: T5, XM5-his (human (hGREM1 with residues 123-143 …)); assay: ELISA: antibody coated, XM5-his supernatant titrated (axis: supernatant percentage, %), anti-his-HRP
T5 construct: Unpurified supernatant used; also called gremlin-DAN fusion protein XM5; chimeric hGREM1
T5 chain: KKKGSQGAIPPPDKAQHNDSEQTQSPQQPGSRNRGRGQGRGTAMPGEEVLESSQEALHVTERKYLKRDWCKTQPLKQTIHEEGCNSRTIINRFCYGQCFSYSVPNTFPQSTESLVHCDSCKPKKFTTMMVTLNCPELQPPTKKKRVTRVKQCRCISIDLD
Protocol: as §1

[7] = molecular target: T6, hGREM1 (Peprotech) (human, UniProt O60565 25-184); assay: Biacore at 25 °C, Gremlin (Peprotech) on the chip, antibody as analyte
T6 construct: also called biotin-hGremlin
T6 sequence: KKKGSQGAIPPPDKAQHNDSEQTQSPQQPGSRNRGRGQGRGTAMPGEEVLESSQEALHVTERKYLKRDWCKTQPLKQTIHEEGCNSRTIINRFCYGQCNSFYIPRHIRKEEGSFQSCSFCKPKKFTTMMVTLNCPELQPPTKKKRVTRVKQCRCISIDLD
Protocol: (§2) HGREM1 (Peprotech) was immobilized on the Biacore sensor chip. Kinetic experiments were carried out using HBS-EP+ as both the running buffer and the sample buffer. […] Antibody-antigen association was monitored for 180 s while dissociation in buffer was monitored for 360 s. Kinetic analysis was performed using Biacore T200 evaluation software to determine Ka and Kd values. KD was calculated from the experimentally determined Ka and Kd values as KD=Kd/Ka.

[8] = molecular target: T7, hGREM1 (source and construct not stated) (human, UniProt O60565 25-184); assay: ELISA on hGREM1
T7 construct: also called Gremlin; gremlin
T7 sequence: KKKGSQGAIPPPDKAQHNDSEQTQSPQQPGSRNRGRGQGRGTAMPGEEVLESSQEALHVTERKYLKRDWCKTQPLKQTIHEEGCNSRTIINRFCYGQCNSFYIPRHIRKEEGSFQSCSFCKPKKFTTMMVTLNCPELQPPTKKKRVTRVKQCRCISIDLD

[9] = molecular target: T4, HGREM1-His (ACRO); assay: ELISA, binding to hGremlin-his
[10] = molecular target: T6, hGREM1 (Peprotech); assay: SPR Biacore T200, 25 C, hGREM1 (Peprotech) immobilized, antibody 12.5-400 nM
Protocol: as §2

binding result [1]: no binding (tested: 2.00 ug/ml) | binding result [2]: no binding (tested: 2.00 ug/ml) | binding result [3]: no binding (tested: 2.00 ug/ml)
B1: XM5-Fc (Fc fusion, not shown: a dimerising Fc or GST)
chain: KKKGSQGAIPPPDKAQHNDSEQTQSPQQPGSRNRGRGQGRGTAMPGEEVLESSQEALHVTERKYLKRDWCKTQPLKQTIHEEGCNSRTIINRFCYGQCFSYSVPNTFPQSTESLVHCDSCKPKKFTTMMVTLNCPELQPPTKKKRVTRVKQCRCISIDLD
notes: also called gremlin 1-DAN fusion protein

Kd [4]: < 1 nM
B2: humanized anti-gremlin1 antibody 14E3 (variant not stated) (antibody, V domains shown)
VH: QVQLVQSGSELKKPGASVKVSCKASGYTFTTYGMAWMRQAPGQGLEWMGWINTLSGEPTYADDFKGRFVFSLDTSVSTAYLQISSLKAEDTAVYYCAREPMDYWGQGTMVTVSS
VL: DVVMTQSPLSLPVTLGQPASISCKSSQSLLDSDGKTYLSWLQQRPGQSPRRLIYLVSKLDSGVPDRFSGSGSGTDFTLKISRVEAEDVGVYYCWQGAHFPLTFGQGTKLEIK
notes: also called Hu14E3; humanized 14E3

EC50 (read off the curve) [5]: ~10 ng/mL | binding result [6]: binds | koff [7]: 0.000882 s⁻¹ | kon [7]: 49900 M⁻¹ s⁻¹ | EC50 [8]: 5.24 ng/mL | EC50 [9]: 6.8 ng/mL | Kd [10]: 17.7 nM
B3: 14E3-C (chimeric antibody of 14E3) (antibody, V domains shown)
VH: QIQLVQSGPELKKPGETVKISCKTSGSTFTTYGMAWMKQAPGKGLTWMGWINTLSGEPTYADDFKGRFAFSLKTSANTAYLQINNLKNEDAATYFCAREPMDYWGQGTSVIVSS
VL: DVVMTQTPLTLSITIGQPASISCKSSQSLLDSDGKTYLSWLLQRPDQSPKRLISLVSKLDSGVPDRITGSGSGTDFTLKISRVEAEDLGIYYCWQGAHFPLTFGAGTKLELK
notes: also called chimeric 14E3; 14E3 hIgG1

— US20240294622A1 (SUZHOU TRANSCENTA THERAPEUTICS, published 2024)
